Experiment: soluble fraction after stress (log2 fold change); higher = more stays soluble; pooled small domains, quantitative proteomics
Settings: stress: 50 degC
Outline: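 The stress applied to every library was 50°C. These custom libraries of small protein domains were pooled and measured at high throughput with quantitative proteomics as the read-out. Aggregation propensity is expressed as the base-two logarithm of the fold change in how much of each protein remains soluble. The higher the value, the more of that protein stays in solution.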

| Sequence | soluble fraction (log2) |
| --- | --- |
| HMEMGNKIKELRTKLGITQEELSKTLNVSSQAVSKWENGGLPDLELIPEIAKYFNVTTDYLFDIK | 0.0658 |
| HMTSHYTVLGVKETDTIEMIRTHYRKLILQFHPDKNQHLTEEERKKLEVKVLQIREAYEKIKKEK | -0.214 |
| HMRESPYRRVAKFLLLIGTAEAAKIVSRLDQDQVEKVMLELSGIRSVPRDEATVILAEFESLLQQAR | -1.47 |
| HMTISAQAITPRLEVIKNFVLMEEWDAAQTQLEKLRSFTEIWSLDPLFSAMKKKDGQKISDWITGFIKDNM | -1.15 |
| HMSTEAVVMSSSVSVKSSPDKASTDLFVLHEGTKVRTVSELGDWREIVIADGKKGWVEARTIET | ≥ 0.62 |
| HMDFYVILGVDRAASLSDVKRAYRRLARKHHPDINPGDPESDAFFMRVTEAYETLVDPDRRQEYDEHG | -1.03 |
| HMDKSHYEELGVSRTATHAEIRRAYRHLMRTLHPDSNDGRVDAVRITKVNEAWNVLSQSSSRNAYDKSQV | -0.38 |
| HMGALSLDMLFDRFDALQEQSMGDKTEGGQELRGMIRTFIEQEKLDIRVTRTTTNAALLEMIEKEMQG | -0.451 |
| HMYLSNPTYRGDSLVDALTQIGVDASFASRRDLARKNGIENYTGSAKQNLELLQLLREGRLR | 0.374 |
| HMRKEEFIRELVLELKQNVSEQVILEQKRFYEEYILTEVRGGKTEEEVIASLSEPRLLAKSIIDAAEAGGD | -0.155 |
| HMKLIPLTDMRGQLRSGAPLPWGVRDAQGNLLLGKGHVIASDDMLEALLARGMFVDAEEAKAARG | 0.00271 |
| HMSQKVQEDFLGDIRKNEIAVTVFLINGVKLQGVITWFDDASILLRRDGHTQLIYKHAVSTIMPGVAVDI | -0.118 |
| HMEDGEVTVPDLRGLTIKEAGTILEKLGLHLSPVGTGLAVRQDVAPGSKVARDTTITVEFEPPDIQVLR | 0.103 |
| HMGFVATRSRKFLPFSEARAITRGLGFSNQKDYKEWIKGNGNELLLPFNPWRTYGDSGWKGWKDFLGTDKA | -1.03 |
| HMHGERVVTAGQTVRVVFTSNGLQVSSEGKALAAGAVGDDIQVRAASGKVIRGTVTGPGVVQV | 0.231 |
| HMTKAEVLLDLQQRIISEEFLPGSWLVERDLSSEYGLSRTPIREILNKLVILGLISVQKNRGYQVR | -1.43 |
| HMKKSGFFSAGDRIQLTDNKGRQYSFNITEGKEFHTHQGFIKHDDLIGMPEGSVVSINSTTGVVQKFMAF | -0.164 |
| HMNSGFEVFREVVNQGSFIGAANALGISAPAVSKQIKLLENRLGLLLLYRTTRNVTLTDIGKQLFDTLDNS | -1.97 |
| HMLGWEDVIQFEEVKGYGQHIWRDGNHLYYVTEEGGIAPQRVVYELPNELFALLESGERTQLEILSKLQ | -3.11 |
| HMGIEIKLLMSFMTDSGRKVSLFVTDPREDVTETEIKQVMDLIIEKNIFAPNGEDIVSAKEAKIVQT | -1.25 |
| HMNIEEQVVAEVLVKDFMKQLTPRDIHILELRKNGYTYQEIAGQLGYHTHSAVKKRVDRLAEQWLAYTQGH | -1.53 |
| HMTQSGLTQWEFNMLRQALIEMLGEKPGSVFELARLLPLEQEKNVQALRFLLDHDDQFHLKDEYISFVKRT | -1.92 |
| HMQYDESSQLGERFLNQALNALKADPDKVGDAQWEKLLKENSAKSRQEVLADIGLGKQLAIVIARELLS | -0.115 |
| HMIPEILNGYTKWGDDEPFEDHAGPFYMKMMPSTGRHLSAFIPEQRHMNGGGFLHGGMLMSFADYALFVI | 0.00747 |
| HMERLLVSKINGMITEAKVSVEDVVKVVASRGHYPEVKSIDEYPDDFLSRWVVPNFKKIVEMINANKEA | 0.187 |

| Sequence | soluble fraction (log2) |
| --- | --- |
| HMRTYYEILGVSKNASLHEIQKAYRELALKYHPKNNSDPTAEEKFTQINEAYTHLSDAARRRSYDDL | 0.222 |
| HMPDPHSEARNIVLNQLNFMPRSRKELETALAKRNIEADVAKIVLDRFEEIGMVDDAAYAEL | 0.159 |
| HMPLITLSAEIQSEQIGQRLDQTLAELFPEYSRSRLKTWIEADLVKLNNQIVNIPREKVLGGEHVEITVDI | -0.611 |
| HMKPQKRYLFEEVLTFLKHNSEKSFNYKQLGAAMEISNESDRFTLLETLEELKHQGFVVEKEIGKYQAKE | -0.527 |
| HMKAAQDQDQAATLLQKATGVNQDQAKLAATVLFKEQSVTPIRQAIASGDYYQAYQDAKSLQQQ | -0.144 |
| HMKVRDTQYIIEAAISKNVIRKSKNIYYYGTDIIGRSLEDAIASLNDKKNQDIKMTILQEIES | -0.493 |
| HMTQEAMRSLRKSLQNLSSRQQVIFMLRHYEGLALKEIAEHLGLETGTVKAHLHRAVTQLRKDLVE | -1.68 |
| HMSGDYRALYSSLPPERASSVVDALNVAGIPYRIQDSTGAIMVPAEQIYDARIRLAGQGLGK | 0.227 |
| HMEDVRSLTGPEKAAIILLSLGEEHGQGVWRMFDDEEVKEVSQIMANLGTISASVVEKLLVEFVSQMST | -0.873 |
| HMQSKDDLLDTFRVVKGNAALLNDQNKKLIRSLKVSSFGFTGITDQAAEVKKEMPDVLLEKASIEDILF | -0.12 |
| HMSVKTIRKTEFAKRLYSLMLEKNWNQSDLARASGMGRDSVSQYIRANNTPSPQNLKKLAEALGVEPVELY | -1.3 |
| HMSIGLEGFVGKLGISTSDLRPSGWGEFDAKKLFVVTEGEFVDRKEKIEILSVDGNRILVRKIS | -0.751 |
| HMEVGKRIAEIRKENRMSQEQFGQLFHVTRQTVSNWENAKSYPDLQTLVKISELFEITMDELLK | -0.511 |
| HMDGVLLDHLDGFVTTRRGVEAWLEQPTSFNKPSILLVAADGESTRRAIPSIAFGYDFASRHDIPAYDAG | -0.496 |
| HMTTTPAERQRTILRSLNRVDPVSVDALARLTGVSVVTIRRDLSDLASRDLIRRVHGGALLPTR | -0.917 |
| HMEPEAKIDFILKAAQKRLGLYGYEKTTMQEIAADINMSKAALYYYFPDKESLFKAVVENEQEEYFH | -1.63 |
| HMRESRLFQILYQLLTKKKVTAANLAKQFEVSVRTIYRDIDALSSSGIPIYASQGKNGGIQLDEDF | -1.11 |
| HMKSFIWKQYTVQITKKNVKNTNVRIKRDNPHVILMSIPYSATYKAGLLALETPHIRHWLDNYERKLKQ | -1.48 |
| HMNTKLKPLYLLDIFREMTDERHRMTVPELLEELQRRGITAERKGIYRDIDALIQYGADIKHTGTGYYLAR | -0.561 |
| HMTMKQVFIETDANVNQKIMLNEKEAHHLFDVLRTSDKETIRVVTNTSQVFLARVQQKPYIYLFDKMTVE | -1.41 |
| HMHMHTADDFKQLAKHTSNGRLRTRYLALYHFKKGETRTQIAAYLGVARGSVNTWVSNYLAYGLEGLQS | -2.56 |
| HMVAGGTVSRKLSIETGLPKRKSLIGSWLDQNSVWHNIISVRHRNGYGDGVNYGFYLRSLLTSEGNLAW | -0.114 |
| HMLESPVEAIIRQIKQLITNGKLKPGDRLPAERLLAENFGVGRGYVREAIMKLEFFGLLKTSPQSGTYVAG | -0.748 |
| HMRQSIHTALQLLTPREEEVLNLLVSGKSNKQVAEHFSLSSKTIERHRSSVMRKLDASSFAQLVRIAALR | -3.51 |
| HMETPEIPGLTPRQVEIMLLVGKGYSNKEIARFLTISPETVKTHLKEVFLRFGLRNRVEAIDFTRQNGL | -0.363 |

| Sequence | soluble fraction (log2) |
| --- | --- |
| HMGLLVPELTAEENVSLAAMIAGVPRQQARSISADLLNRLGLGQMLDRRMGEMSGGQAQRVAIAPIYGKF | -0.274 |
| HMTTEPYILTRMPDGSIKAEPNLNYKGPEQKPGSNIQVKGADGRIYLVPIDGQGKPGKPQLVD | 0.116 |
| HMDSSITLMRMYIPKGHNWENKLISDVSMPTNSLALMIKRNGTTIIPKGDTMILAKDTLILSVPSYEPS | -1.13 |
| HMKEEVMVPNVVGKELSAALLEMQVKELYPKLQLKYSNFVDDKGTVLEQSPPAGSIVKAGRRINLVVSRGA | 0.144 |
| HMENPLETYYSQWVSAIKREHPEASFVKDTDGKYYVEGLTKNRLAVIYENPHLVRLVNATTNLHVE | -0.305 |
| HMRTVLSDETYLRIREMLLTHDIAPGERINIDALARELDVSQTPVREALARLESEDLVTKEPLRGYTATK | -0.017 |
| HMASVDDILDRFKQAAKVTTDADLAKVLGLSRQSIAAARLRAKIPASWFPKMSSLFNISTEWLYRG | -0.628 |
| HMTKLSPKEKSILHIIGDNAGIKSGQIAKRLDIPSPTVKRILSDLVSQNLIEKFGTGPGTNYSI | 0.0531 |
| HMAEMRYLDQIYEVNVPLPDLSLEDGDLLARWAVNFHQRYEELFSYRQSDQEIRLVTLRVTVLGELP | -0.653 |
| HMDSLSGQQGRVLEEINGFLQTGKVLLNGMEWSAVSKQPEDILPVDTEVVVVRVEGAHLVVKKA | 0.0592 |
| HMKGTVLAPGIILNADDQRFTYLQEDVASVAKDGAAIVLKQGDEVDFIADGQTAKQIYLTKT | 0.0649 |
| HMPDFAENAVYGKQREDSLYAHAYKHFQLGDTTTVRAAEHLSAEIYPLGQHRPKFMFLNAVTR | 0.0766 |
| HMSESGTFRAEAADAGRRLDVALAERLRLSRAAAQRLIAAGLVLVEGSPARKRQILHAGETVAWRAAPP | -0.127 |
| HMNQLSYTERRVLQVIEGGTTKTGEIEQALAAKMSRPTVHRALDALVGANRIHRLARGEYALGPAP | -0.147 |
| HMQDEAQLSMSNKYIFEGNSIVKDNFIEAEKKYRLGVSAKPNNAVGSYNLANAYYNSKLYDEAMLRLL | 0.272 |
| HMGTIRAPMPGTILKINVVDGDSVTKGDVLLILESMKMENSITSPKTGSVTSVYVSEGDPVQHGETLIDL | -0.147 |
| HMVPVVGTTIPHEFIGKFGSARVMLKPAVEGSGVIAGGSARAVLELAGYKDIKTKVLGTNNPRNVVYATMN | 0.0414 |
| HMSKTQYTFKEVGSQFQLFAPSTKHTIMISADHPKYGWLTNQDQGRVINVYDTGKMTSSQDYYGLYKEVT | -0.155 |
| HMEDSHIYPVSFNGKMRFKLELPVSMNKKEIEEVVLQHEDAQKWLNGQNPKKVIVVPKRIINIV | 0.0081 |
| HMQGYELKMYVTPDTKYSVAVYDAKNEMVSYTMGFSAKAPFGQEGEVLETVKLEFDKLAVGNYELKYWI | 0.314 |
| HMVSQKPKERELWFREQLELAGLRLDPHAISAINETLGNDTGRFPGIIDTLLSTYGAGKKLSYDDVVMFL | -0.477 |
| HMTEWSIHEVAQRSGVTTRTLRHYDAIGILSPTRTGANGYRYYGPEALVRLQRILLLRDLGLALSDIAE | -4.61 |
| HMTPTRQATVSVAALNVREQPSLQGRRLGKLTQGTTLTVVGPPGEWLKIEYKGETGFVYASYTSLG | -1.59 |
| HMRDLAEAETILDALPTRLRKIVRWRHLEGLSQTEIAARLEISQMHVSRLYRRAISMIHASLADD | -0.0123 |
| HMNEMEWVAKLIDQLPERERMILQLREIEQYEFDQIASLMEIPEGTVRVYLSRIRKKIKKQFIEIQSH | 0.0739 |

From the domain aggregation screens of Martell et al. (2025)
